Measurements: patent publication US20240238263A1, “USE OF PYRIDONE DERIVATIVE CONTAINING HETEROATOM CYCLOBUTANE SUBSTITUENT” (GUANGZHOU JOYO PHARMATECH CO., LTD, priority 2021, published 2024)

Tested on: dorsal skin full-thickness excisional wound in STZ-induced diabetic rats
Assay: Dorsal skin full-thickness excisional wound model in STZ-induced diabetic rats, wound closure
Assay type: in vivo, Wistar rats
Details: for Remaining open wound area: GeneTime 0.04 mL topical twice daily
Procedure: In this study, 50 STZ-diabetic rats were used to simulate Type 1 diabetes, with an additional 8 normal rats serving as the control group (normal blank gel control group (without STZ)). The method for modeling the STZ-diabetic rat is as follows: Male Wistar rats were weighed and then intraperitoneally injected with Streptozotocin (STZ, freshly prepared, dissolved in 0.1 M citrate buffer (pH 4.5)) at a dosage of 80 mg/kg. STZ was intraperitoneally injected twice in total, with a 5-day interval between injections. Three days after the second STZ injection, rats with fasting blood glucose levels greater than 250 mg/dl were defined as diabetic model rats. Studies on skin wound healing could be conducted from 1 to 8 weeks after the successful establishment of the diabetic rat model. • 2.
In diabetic model rats, the dorsal skin was marked with a stamp, and full-thickness excision was performed to create a standardized wound area. The day of the full-thickness skin excision surgery was designated as Day 1 of the experiment. The specified surgical procedure was as follows: • 1) Prior to surgery, animals were anesthetized with 2-5% isoflurane. The back was shaved and prepared, and the surgical area was disinfected with iodophor, followed by de-iodination with 75% alcohol. • 2) All animals were marked on the skin of their backs using a stamp with a circular pattern. A circular full-thickness skin excision was performed along the midline of the rat's back, extending down to the fascial layer. […] The surgical site was essentially consistent for each animal; • 3) Post-surgery, every 8-12 hours, 8 mg/kg of bupivacaine (diluted to 0.25% with physiological saline) was injected subcutaneously at the wound site. All animals were closely monitored until they regained consciousness. Animals were monitored daily, and if symptoms of pain persisted, they would continue to receive pain medication. • 4. Drug administration:
All experimental groups were topically administered. Before administering the medication, wounds were rinsed with physiological saline and any residual moisture was absorbed with a sterile cotton swab. Then, the medication was applied. For the GeneTime group, the solution was evenly applied to the wound and surrounding skin, with the dressing changed twice a day. For the other groups, the gel samples were applied from the periphery toward the center, focusing first on the edges of the lesion before covering inward, with the dressing changed twice a day. Medication was applied immediately after the wound model was created, and each group was continuously administered for 18 days. For specific administration information, see Table 2. • 5. Efficacy assessment • 1) Blood glucose monitoring: Blood samples were obtained from all animals via tail vein sampling, and fasting blood glucose levels were measured on days 0/9/18 using a glucometer. • 2) Evaluation of wound closure:
After anesthetizing the rats with isoflurane, a ruler was placed near the wound as a reference scale. Using a digital camera, photos of the wound on the rat's back were taken on days 1, 4, 8, 11, 14, and 18, maintaining a constant focus and pixel condition. The obtained images were processed by software to measure the wound area. • 6. Statistical analysis
Experimental data were expressed as the mean±standard error of the mean (mean±S.E.M.). Statistical analyses were conducted using appropriate methods in software such as Graphpad Prism or SPSS. A p-value of less than 0.05 is considered to indicate a significant difference. • 7. Results • 1) Fasting blood glucose
Remaining Open Wound Area %=Open Wound Area (O)/Initial Wound Area (I)*100%

B1: GeneTime: Recombinant Human Epidermal Growth Factor External Solution, 2000 IU/mL; positive control (protein, UniProt P01133 23-1207, looked up)
Pro-epidermal growth factor: PQHWSCPEGTLAGNGNSTCVGPAPFLIFSHGNSIFRIDTEGTNYEQLVVDAGVSVIMDFHYNEKRIYWVDLERQLLQRVFLNGSRQERVCNIEKNVSGMAINWINEEVIWSNQQEGIITVTDMKGNNSHILLSALKYPANVAVDPVERFIFWSSEVAGSLYRADLDGVGVKALLETSEKITAVSLDVLDKRLFWIQYNREGSNSLICSCDYDGGSVHISKHPTQHNLFAMSLFGDRIFYSTWKMKTIWIANKHTGKDMVRINLHSSFVPLGELKVVHPLAQPKAEDDTWEPEQKLCKLRKGNCSSTVCGQDLQSHLCMCAEGYALSRDRKYCEDVNECAFWNHGCTLGCKNTPGSYYCTCPVGFVLLPDGKRCHQLVSCPRNVSECSHDCVLTSEGPLCFCPEGSVLERDGKTCSGCSSPDNGGCSQLCVPLSPVSWECDCFPGYDLQLDEKSCAASGPQPFLLFANSQDIRHMHFDGTDYGTLLSQQMGMVYALDHDPVENKIYFAHTALKWIERANMDGSQRERLIEEGVDVPEGLAVDWIGRRFYWTDRGKSLIGRSDLNGKRSKIITKENISQPRGIAVHPMAKRLFWTDTGINPRIESSSLQGLGRLVIASSDLIWPSGITIDFLTDKLYWCDAKQSVIEMANLDGSKRRRLTQNDVGHPFAVAVFEDYVWFSDWAMPSVMRVNKRTGKDRVRLQGSMLKPSSLVVVHPLAKPGADPCLYQNGGCEHICKKRLGTAWCSCREGFMKASDGKTCLALDGHQLLAGGEVDLKNQVTPLDILSKTRVSEDNITESQHMLVAEIMVSDQDDCAPVGCSMYARCISEGEDATCQCLKGFAGDGKLCSDIDECEMGVPVCPPASSKCINTEGGYVCRCSEGYQGDGIHCLDIDECQLGEHSCGENASCTNTEGGYTCMCAGRLSEPGLICPDSTPPPHLREDDHHYSVRNSDSECPLSHDGYCLHDGVCMYIEALDKYACNCVVGYIGERCQYRDLKWWELRHAGHGQQQKVIVVAVCVVVLVMLLLLSLWGAHYYRTQKLLSKNPKNPYEESSRDVRSRRPADTEDGMSSCPQPWFVVIKEHQDLKNGGQPVAGEDGQAADGSMQPTSWRQEPQLCGMGTEQGCWIPVSSDKGSCPQVMERSFHMPSYGTQTLEGGVEKPHSLLSANPLWQQRALDPPHQMELTQ
modifications: Pro-epidermal growth factor
notes: Recombinant Human Epidermal Growth Factor External Solution, 2000 IU/mL; positive control
- Remaining open wound area (Day 1 (day of surgery)): 100% ±
- Remaining open wound area (Day 4): 91.82% ±
- Remaining open wound area (Day 8): 52.36% ±
- Remaining open wound area (Day 14): 8.17% ±
- Remaining open wound area (Day 18): 1.79% ±
- Change of remaining open wound area % vs model blank gel control group (GeneTime, day 11 after administration, P<0.05): significantly reduced
